Data taken from patent US20120077731A1 (Ablynx, published 2012).

Tests used:
Human plasma sIL-6R [1] = molecular target: T1, Human plasma sIL-6R (human, UniProt P08887 20-355, limits assumed); experiment: plasma potency assay, human plasma, 2.4 nM IL6; blocked ligand IL-6
T1 construct: also called plasma-derived human IL-6R
T1 sequence (looked up): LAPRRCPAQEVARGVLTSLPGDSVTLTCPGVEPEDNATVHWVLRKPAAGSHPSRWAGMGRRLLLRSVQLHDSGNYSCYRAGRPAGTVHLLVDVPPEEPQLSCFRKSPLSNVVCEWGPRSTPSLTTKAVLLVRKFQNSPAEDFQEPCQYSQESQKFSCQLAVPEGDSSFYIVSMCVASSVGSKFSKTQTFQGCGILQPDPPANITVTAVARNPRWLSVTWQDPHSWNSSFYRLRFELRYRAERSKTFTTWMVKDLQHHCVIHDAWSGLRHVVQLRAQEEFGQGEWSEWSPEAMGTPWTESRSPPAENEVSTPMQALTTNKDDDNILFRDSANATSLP
Experimental: (§1) All 5 affinity matured Nanobodies and the sequence optimized Nanobody were also tested in a plasma potency assay. […] TMB was used as substrate.

[2] = molecular target: T2, Human membrane IL-6R on cells (human, UniProt P08887 20-468); experiment: cell-based or functional assay
T2 sequence (looked up): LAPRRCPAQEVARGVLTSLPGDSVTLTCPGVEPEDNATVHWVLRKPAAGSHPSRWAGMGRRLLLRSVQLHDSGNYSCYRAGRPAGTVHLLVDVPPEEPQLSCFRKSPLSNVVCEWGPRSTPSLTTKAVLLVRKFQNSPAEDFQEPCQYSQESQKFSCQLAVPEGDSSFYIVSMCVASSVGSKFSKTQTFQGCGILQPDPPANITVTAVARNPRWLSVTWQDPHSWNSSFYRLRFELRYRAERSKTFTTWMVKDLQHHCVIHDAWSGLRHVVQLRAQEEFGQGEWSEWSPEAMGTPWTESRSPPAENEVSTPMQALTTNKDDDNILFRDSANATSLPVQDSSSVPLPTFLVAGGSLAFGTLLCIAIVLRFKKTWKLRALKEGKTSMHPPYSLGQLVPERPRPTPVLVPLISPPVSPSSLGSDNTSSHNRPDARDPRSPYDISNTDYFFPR

Cyno plasma sIL-6R [3] = molecular target: T3, Cyno plasma sIL-6R (cynomolgus monkey, UniProt A0A2K5WN54 60-396); experiment: plasma potency ELISA, cyno plasma
T3 construct: also called cynomolgus sIL-6R
T3 sequence: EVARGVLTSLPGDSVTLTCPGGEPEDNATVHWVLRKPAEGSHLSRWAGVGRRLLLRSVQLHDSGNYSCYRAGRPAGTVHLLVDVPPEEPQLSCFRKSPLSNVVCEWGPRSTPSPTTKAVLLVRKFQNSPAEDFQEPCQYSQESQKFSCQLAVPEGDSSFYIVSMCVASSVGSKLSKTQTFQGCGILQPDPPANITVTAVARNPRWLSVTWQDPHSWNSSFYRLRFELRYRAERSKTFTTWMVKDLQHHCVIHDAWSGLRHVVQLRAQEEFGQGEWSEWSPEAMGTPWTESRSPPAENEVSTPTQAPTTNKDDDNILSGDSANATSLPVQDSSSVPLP

Cyno plasma sIL-6R [4] = molecular target: T3, Cyno plasma sIL-6R; experiment: plasma potency ELISA, cyno plasma + human IL-6 50 ng/mL; sIL-6R captured on BN-12, bound IL-6 detected; blocked ligand IL-6
Cyno plasma sIL-6R [5] = molecular target: T3, Cyno plasma sIL-6R; experiment: plasma potency ELISA, human against cyno plasma
[6] = molecular target: T2, Human membrane IL-6R on cells; experiment: cell-based or functional assay; remark: listed apart in the source
Human plasma sIL-6R [7] = molecular target: T1, Human plasma sIL-6R; experiment: plasma potency ELISA, human plasma + human IL-6 50 ng/mL; sIL-6R captured on BN-12, bound IL-6 detected; blocked ligand IL-6
Human plasma sIL-6R [8] = molecular target: T1, Human plasma sIL-6R; experiment: plasma potency assay, human plasma, 42 nM IL6; blocked ligand IL-6
Experimental: as §1

Human plasma sIL-6R [9] = molecular target: T1, Human plasma sIL-6R; experiment: plasma potency ELISA, human plasma; human plasma
Human plasma sIL-6R [10] = molecular target: T1, Human plasma sIL-6R; experiment: plasma potency ELISA, human plasma, normal IL-6 (EC50)
Human plasma sIL-6R [11] = molecular target: T1, Human plasma sIL-6R; experiment: plasma potency ELISA, human plasma
Human plasma sIL-6R [12] = molecular target: T1, Human plasma sIL-6R; experiment: plasma potency ELISA, human plasma, high IL-6 (EC95)
[13] = molecular target: T2, Human membrane IL-6R on cells; experiment: cell-based or functional assay; remark: listed apart in the source

IC50 (Human plasma sIL-6R [1]): 0.2 nM
IC50 (nM), TF-1 proliferation at 100 IU/mL IL-6 [2]: 0.921 nM
IC50 (Cyno plasma sIL-6R [3]): 0.166 nM
IC50 (read off the curve) (Cyno plasma sIL-6R [4]): ~0.01 nM
Ratio (human/cyno) of IC50 (Cyno plasma sIL-6R [5]): 1.55
IC50 (nM) + HSA, XG-1 proliferation assay [6]: 0.47 nM
IC50 (read off the curve) (Human plasma sIL-6R [7]): ~0.04 nM
IC50 (Human plasma sIL-6R [8]): 1.7 nM
IC50 (Human plasma sIL-6R [9]): 0.258 nM
IC50 (Human plasma sIL-6R [10]): 0.258 nM
Ratio (high/low) of IC50 (Human plasma sIL-6R [11]): 6.54
IC50 (Human plasma sIL-6R [12]): 1.69 nM
IC50 (nM), TF-1 proliferation at 5000 IU/mL IL-6 [13]: 144 nM
B1: Reference IgG (antibody, V domains shown)
VH: QVQLQESGPGLVRPSQTLSLTCTVSGYSITSDHAWSWVRQPPGRGLEWIGYISYSGITTYNPSLKSRVTMLRDTSKNQFSLRLSSVTAADTAVYYCARSLARTTAMDYWGQGSLVTVSS
VL: DIQMTQSPSSLSASVGDRVTITCRASQDISSYLNWYQQKPGKAPKLLIYYTSRLHSGVPSRFSGSGSGTDFTFTISSLQPEDIATYYCQQGNTLPYTFGQGTKVEIKR
notes: Full-length human IgG1 produced in CHO cells
